Experimental findings from the supplement of paper PMC10567573 are described below.

First the molecules themselves.
B1: NEK8 (parent)
chain: VTIKHVACGDFFTACLTDRGIIMT
B2: ZNF511 (parent)
chain: AAPFRFVARPVRFPREHQFFEDGD
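Note: lentivirally expressed fusions sorted by FACS into six bins by GFP to DsRed ratio, PSI derived from sequencing read proportions per bin multiplied by bin number.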

The variants in the first series derive from B1. Briefly: protein stability index of a GFP-peptide fusion (GPS, HEK-293T) (PSI 1-6); higher = more stable. The note with it: c terminus: a fixed tail appended.
Consider VTIKHVACGDFFTACLTDRSIIMT [G20S], for which the protein stability index worked out at 2.84.
With VTIKHVACGDFFTACLTDRTIIMT [G20T], the protein stability index stood at 1.48.
For the variant VTIKHVACGDFFTACLTDRVIIMT [G20V], the protein stability index was 1.72.
Still for that read-out and setting: the figure for VTIKHVACGDFFTACLTDRWIIMT [G20W] is 2.57.
On the same count and under the same terms, next, VTIKHVACGDFFTACLTDRYIIMT [G20Y]: 2.3.
In the case of VTIKHVACGDFFTACLTDRGINMT [I22N], the protein stability index is 3.67.
Still for that read-out and setting: next, VTIKHVACGDFFTACLTDRGIKMT [I22K]: 3.62.
The same measure, in the same setting: the figure for VTIKHVACGDFFTACLTDRGIYMT [I22Y] is 2.39.
Still for that read-out and setting: the figure for VTIKHVACGDFFTACLTDRGIDMT [I22D] is 3.93.
VTIKHVACGDFFTACLTDRGILMT [I22L]: the protein stability index was 4.46.
Still for that read-out and setting: next, VTIKHVACGDFFTACLTDRGIFMT [I22F]: 4.9; VTIKHVACGDFFTACLTDRGIGMT [I22G]: 2.98.
The same measure, in the same setting: next, VTIKHVACGDFFTACLTDRGIEMT [I22E]: 3.75.
The same measure, in the same setting: the figure for VTIKHVACGDFFTACLTDRGIWMT [I22W] is 4.62; for VTIKHVACGDFFTACLTDRGICMT [I22C] it is 3.72; for VTIKHVACGDFFTACLTDRGIVMT [I22V] it is 2.46.
For the variant VTIKHVACGDFFTACLTDRGIQMT [I22Q], the protein stability index amounted to 3.88.
VTIKHVACGDFFTACLTDRGIAMT [I22A]: the protein stability index worked out at 2.38.
Still for that read-out and setting: next, VTIKHVACGDFFTACLTDRGIPMT [I22P]: 2.67.
Same read-out and setting: the figure for VTIKHVACGDFFTACLTDRGIIRT [M23R] is 1.41.
Same read-out and setting: next, VTIKHVACGDFFTACLTDRGIIST [M23S]: 2.56; VTIKHVACGDFFTACLTDRGIIVT [M23V]: 2.73.
As for VTIKHVACGDFFTACLTDRGIIPT [M23P], the protein stability index came to 2.9.
Same read-out and setting: next, VTIKHVACGDFFTACLTDRGIIET [M23E]: 2.81; VTIKHVACGDFFTACLTDRGIIGT [M23G]: 3.62; VTIKHVACGDFFTACLTDRGIIHT [M23H]: 2.61.
Same read-out and setting: the figure for VTIKHVACGDFFTACLTDRGIITT [M23T] is 1.89; for VTIKHVACGDFFTACLTDRGIIYT [M23Y] it is 3.28; for VTIKHVACGDFFTACLTDRGIIAT [M23A] it is 1.6.
Consider VTIKHVACGDFFTACLTDRGIILT [M23L], for which the protein stability index worked out at 3.85.
Consider VTIKHVACGDFFTACLTDRGIIIT [M23I], for which the protein stability index stood at 2.77.
On to VTIKHVACGDFFTACLTDRGIIQT [M23Q], for which the protein stability index is 1.47.
The same measure, in the same setting: next, VTIKHVACGDFFTACLTDRGIINT [M23N]: 2.3; VTIKHVACGDFFTACLTDRGIICT [M23C]: 2.67; VTIKHVACGDFFTACLTDRGIIDT [M23D]: 3.49.
Still for that read-out and setting: next, VTIKHVACGDFFTACLTDRGIIKT [M23K]: 1.91; VTIKHVACGDFFTACLTDRGIIMK [T24K]: 2.93.
On the same count and under the same terms, the figure for VTIKHVACGDFFTACLTDRGIIME [T24E] is 3.11.
Turning to VTIKHVACGDFFTACLTDRGIIMD [T24D], the protein stability index was found to be 3.14.
As for VTIKHVACGDFFTACLTDRGIIMS [T24S], the protein stability index was 2.33.
Still for that read-out and setting: the figure for VTIKHVACGDFFTACLTDRGIIMI [T24I] is 3.19; for VTIKHVACGDFFTACLTDRGIIMG [T24G] it is 3.47; for VTIKHVACGDFFTACLTDRGIIMC [T24C] it is 2.87.
On to VTIKHVACGDFFTACLTDRGIIMA [T24A], for which the protein stability index was 2.87.
Regarding VTIKHVACGDFFTACLTDRGIIMF [T24F], the protein stability index worked out at 2.64.
Take VTIKHVACGDFFTACLTDRGIIML [T24L]: the protein stability index stood at 4.18.
In the case of VTIKHVACGDFFTACLTDRGIIMN [T24N], the protein stability index is 2.41.
In the case of VTIKHVACGDFFTACLTDRGIIMY [T24Y], the protein stability index is 2.3.
Regarding VTIKHVACGDFFTACLTDRGIIMH [T24H], the protein stability index stood at 1.84.
On the same count and under the same terms, next, VTIKHVACGDFFTACLTDRGIIMR [T24R]: 2.45; VTIKHVACGDFFTACLTDRGIIMV [T24V]: 2.81; VTIKHVACGDFFTACLTDRGLIMT [I21L]: 2.25.
In the case of VTIKHVACGDFFTACLTDRGEIMT [I21E], the protein stability index came to 3.51.
Still for that read-out and setting: next, VTIKHVACGDFFTACLTDRGFIMT [I21F]: 2.9; VTIKHVACGDFFTACLTDRGVIMT [I21V]: 3.14; VTIKHVACGDFFTACLTDRGWIMT [I21W]: 2.31.
The same measure, in the same setting: next, VTIKHVACGDFFTACLTDRGSIMT [I21S]: 2.5; VTIKHVACGDFFTACLTDRGDIMT [I21D]: 2.13.
Still for that read-out and setting: the figure for VTIKHVACGDFFTACLTDRGQIMT [I21Q] is 2.92; for VTIKHVACGDFFTACLTDRGNIMT [I21N] it is 2.87; for VTIKHVACGDFFTACLTDRGGIMT [I21G] it is 3.21.
On to VTIKHVACGDFFTACLTDRGAIMT [I21A], for which the protein stability index came out at 1.79.
Take VTIKHVACGDFFTACLTDRGTIMT [I21T]: the protein stability index amounted to 2.48.
Regarding VTIKHVACGDFFTACLTDRGKIMT [I21K], the protein stability index worked out at 2.78.
Still for that read-out and setting: next, VTIKHVACGDFFTACLTDRGHIMT [I21H]: 2.36.
Same read-out and setting: the figure for VTIKHVACGDFFTACLTDRGRIMT [I21R] is 2.49.
Still for that read-out and setting: next, VTIKHVACGDFFTACLTDRGPIMT [I21P]: 2.25.
VTIKHVACGDFFTACLTDRGCIMT [I21C]: the protein stability index came to 2.7.
As to VTIKHVACGDFFTACLTDRGMIMT [I21M], the protein stability index stood at 2.95.

Variants of B2 are the subject of another series. The description is as above. The settings on record: c terminus: a fixed tail appended.
As for SAPFRFVARPVRFPREHQFFEDGD [A1S], the protein stability index was 2.07.
The same measure, in the same setting: next, KAPFRFVARPVRFPREHQFFEDGD [A1K]: 2.02; EAPFRFVARPVRFPREHQFFEDGD [A1E]: 2.04; NAPFRFVARPVRFPREHQFFEDGD [A1N]: 2.51.
On the same count and under the same terms, next, QAPFRFVARPVRFPREHQFFEDGD [A1Q]: 2.61; RAPFRFVARPVRFPREHQFFEDGD [A1R]: 1.93; MAPFRFVARPVRFPREHQFFEDGD [A1M]: 3.08.
For the variant CAPFRFVARPVRFPREHQFFEDGD [A1C], the protein stability index amounted to 2.39.
On the same count and under the same terms, the figure for FAPFRFVARPVRFPREHQFFEDGD [A1F] is 3.42; for TAPFRFVARPVRFPREHQFFEDGD [A1T] it is 1.22.
In the case of PAPFRFVARPVRFPREHQFFEDGD [A1P], the protein stability index was 2.29.
For HAPFRFVARPVRFPREHQFFEDGD [A1H], the protein stability index stood at 1.63.
Still for that read-out and setting: next, DAPFRFVARPVRFPREHQFFEDGD [A1D]: 2.2; IAPFRFVARPVRFPREHQFFEDGD [A1I]: 1.82; YAPFRFVARPVRFPREHQFFEDGD [A1Y]: 4.23.
On to WAPFRFVARPVRFPREHQFFEDGD [A1W], for which the protein stability index is 2.31.
For AGPFRFVARPVRFPREHQFFEDGD [A2G], the protein stability index came out at 2.36.
The same measure, in the same setting: the figure for AKPFRFVARPVRFPREHQFFEDGD [A2K] is 2.01.
In the case of ACPFRFVARPVRFPREHQFFEDGD [A2C], the protein stability index was 2.05.
As for AEPFRFVARPVRFPREHQFFEDGD [A2E], the protein stability index was found to be 2.8.
AFPFRFVARPVRFPREHQFFEDGD [A2F]: the protein stability index came to 1.85.
With ADPFRFVARPVRFPREHQFFEDGD [A2D], the protein stability index worked out at 3.25.
Take ALPFRFVARPVRFPREHQFFEDGD [A2L]: the protein stability index stood at 1.32.
On the same count and under the same terms, next, AIPFRFVARPVRFPREHQFFEDGD [A2I]: 2.69; AHPFRFVARPVRFPREHQFFEDGD [A2H]: 2.48.
